Results from US20090186040A1 (published 2009).

Biological target: T1, BLyS (B-lymphocyte stimulator) (UniProt Q9Y275 134-285)
T1 construct: Endogenous BLyS in the serum of human SLE patients; The complex with atacicept was detected by sandwich ELISA
Test: ELISA of atacicept/BLyS complex in serum of dosed SLE patients (subcutaneous, Study 1)
Protocol: Pharmacokinetics were assessed by measuring serum levels of free atacicept (Table 2a), atacicept/BLyS complex (Table 3a), and composite atacicept (defined as free atacicept+atacicept-BLyS complex, Table 4a). Serum levels of each of these were quantified using an enzyme-linked immunosorbant assay. Serum was incubated with a biotin-conjugated mouse mAb specific for atacicept (free or total atacicept detection) (ZymoGenetics, Inc., Seattle, Wash.) or biotin-conjugated goat polyclonal antibodies specific for either BLyS or atacicept (atacicept/BLyS complex detection) (R & D Systems, Minneapolis, Minn.), immobilized on a streptavidin-coated microplate (Adaltis, Montreal, Quebec). […] In all three assays, atacicept serum levels were detected and quantified using standard […] methods, i.e., after washing tetramethylbenzidine (TMB) was added as HRP substrate (Sigma-Aldrich, St. Louis, Mo.). The reaction was halted after 20 minutes using 0.5 M sulfuric acid and the absorbance recorded at 450 nm. […] All samples were measured in triplicate. […] The lower limits of quantification (LLOQ) of the assays were 15.6 ng/mL for free atacicept, 5 U/mL for atacicept-BLyS complex (1 U/mL corresponding to 1.82 ng/mL atacicept-0.44 ng/mL BLyS in a 3:1 molar ratio), and 25 ng/mL for the composite analytes. […]

T1 sequence (Q9Y275 134-285 limits assumed): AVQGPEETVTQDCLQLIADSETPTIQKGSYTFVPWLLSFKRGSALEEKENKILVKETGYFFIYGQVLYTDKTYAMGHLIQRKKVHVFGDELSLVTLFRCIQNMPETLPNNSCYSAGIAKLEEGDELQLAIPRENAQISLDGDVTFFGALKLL

B1: atacicept (Fc fusion)
chain: AMRSCPEEQYWDPLLGTCMSCKTICNHQSQRTCAAFCRSLSCRKEQGKFYDHLLRDCISCASICGQHPKQCAYFCENKLRSEPKSSDKTHTCPPCPAPEAEGAPSVFLFPPKPKDTLMISRTPEVTCVVVDVSHEDPEVKFNWYVDGVEVHNAKTKPREEQYNSTYRVVSVLTVLHQDWLNGKEYKCKVSNKALPSSIEKTISKAKGQPREPQVYTLPPSRDELTKNQVSLTCLVKGFYPSDIAVEWESNGQPENNYKTTPPVLDSDGSFFLYSKLTVDKSRWQQGNVFSCSVMHEALHNHYTQKSLSLSPGK
modifications: Fc-linked homodimer in the drug; one chain is given.
notes: also called TACI-Ig; TACI-Fc5
Question: Does B1 bind?
Answer: binds
